Each block holds one binder with its values, some of them ahead of it. Numbered stars: 1 amine (or outer) side, 2 acyl side, 3 side chain; on linkers, the order of the positions; unused ones are H or OH. Bridge positions count the residues as written; N and C are the ends. Side chains are listed from the residue outwards. Ends that are not written are not given here. * marks the point of attachment. C20 diacid = O=C(O)CCCCCCCCCCCCCCCCCCC(=O)*; γGlu = O=C(O)[C@H](CCC(=O)[*:2])N[*:1]; AEEA = NCCOCCOCC(=O)O
Legend:
[1] = target: T1, human amylin receptor (amylin 3(a) receptor: human calcitonin receptor with RAMP-3) (human, UniProt P30988 25-474; O60896 24-148); experiment: cell-based or functional assay
T1 sequence (looked up) 1: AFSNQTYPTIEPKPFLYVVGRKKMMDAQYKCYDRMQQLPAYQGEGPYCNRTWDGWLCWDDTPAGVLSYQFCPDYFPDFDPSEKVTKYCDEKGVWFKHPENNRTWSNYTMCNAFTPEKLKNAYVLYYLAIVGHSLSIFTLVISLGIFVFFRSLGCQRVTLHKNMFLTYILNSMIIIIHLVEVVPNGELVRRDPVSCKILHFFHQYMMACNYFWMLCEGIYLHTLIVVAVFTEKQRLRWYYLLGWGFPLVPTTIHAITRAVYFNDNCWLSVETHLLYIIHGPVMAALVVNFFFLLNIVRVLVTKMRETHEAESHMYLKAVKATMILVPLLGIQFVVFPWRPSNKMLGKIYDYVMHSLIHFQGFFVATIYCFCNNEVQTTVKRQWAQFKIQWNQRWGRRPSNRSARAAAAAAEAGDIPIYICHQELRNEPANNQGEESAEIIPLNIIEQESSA
T1 sequence (looked up) 2: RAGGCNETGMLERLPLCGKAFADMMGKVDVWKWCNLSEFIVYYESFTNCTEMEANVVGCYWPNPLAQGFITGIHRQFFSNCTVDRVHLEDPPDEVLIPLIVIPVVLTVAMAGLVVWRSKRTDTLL

[2] = target: T2, human calcitonin receptor (human, UniProt P30988 25-474); experiment: cell-based or functional assay
T2 sequence (looked up): T1 sequence (looked up) 1

B1: N^α1-[(4S)-4-carboxy-4-(19-carboxynonadecanoylamino)butanoyl]-[Glu14,Arg17,Pro21,Pro27,Pro37]-h-amylin (peptide)
peptide: {C20 diacid-γGlu}-KCNTATCATQRLAEFLRHSSPNFGAIPSSTNVGSNTP-NH2
modifications: disulfide 2-7
SMILES: CC[C@H](C)[C@H](NC(=O)[C@H](C)NC(=O)CNC(=O)[C@H](Cc1ccccc1)NC(=O)[C@H](CC(N)=O)NC(=O)[C@@H]1CCCN1C(=O)[C@H](CO)NC(=O)[C@H](CO)NC(=O)[C@H](Cc1c[nH]cn1)NC(=O)[C@H](CCCNC(=N)N)NC(=O)[C@H](CC(C)C)NC(=O)[C@H](Cc1ccccc1)NC(=O)[C@H](CCC(=O)O)NC(=O)[C@H](C)NC(=O)[C@H](CC(C)C)NC(=O)[C@H](CCCNC(=N)N)NC(=O)[C@H](CCC(N)=O)NC(=O)[C@@H](NC(=O)[C@H](C)NC(=O)[C@@H]1CSSC[C@H](NC(=O)[C@H](CCCCN)NC(=O)CC[C@H](NC(=O)CCCCCCCCCCCCCCCCCCC(=O)O)C(=O)O)C(=O)N[C@@H](CC(N)=O)C(=O)N[C@@H]([C@@H](C)O)C(=O)N[C@@H](C)C(=O)N[C@@H]([C@@H](C)O)C(=O)N1)[C@@H](C)O)C(=O)N1CCC[C@H]1C(=O)N[C@@H](CO)C(=O)N[C@@H](CO)C(=O)N[C@H](C(=O)N[C@@H](CC(N)=O)C(=O)N[C@H](C(=O)NCC(=O)N[C@@H](CO)C(=O)N[C@@H](CC(N)=O)C(=O)N[C@H](C(=O)N1CCC[C@H]1C(N)=O)[C@@H](C)O)C(C)C)[C@@H](C)O
notes: also called compound 8
hAmylin-R funct. EC50 [1]: 0.082 nM | Ratio hCT/hAmylin funct. [2]: 1.1 | hCTR funct. EC50 [2]: 0.087 nM

B2: N^α1-[(4S)-4-carboxy-4-(19-carboxynonadecanoylamino)butanoyl]-[His14,Arg17,Pro21,Pro27,Glu35]-h-amylin (peptide)
peptide: {C20 diacid-γGlu}-KCNTATCATQRLAHFLRHSSPNFGAIPSSTNVGSETY-NH2
modifications: disulfide 2-7
SMILES: CC[C@H](C)[C@H](NC(=O)[C@H](C)NC(=O)CNC(=O)[C@H](Cc1ccccc1)NC(=O)[C@H](CC(N)=O)NC(=O)[C@@H]1CCCN1C(=O)[C@H](CO)NC(=O)[C@H](CO)NC(=O)[C@H](Cc1c[nH]cn1)NC(=O)[C@H](CCCNC(=N)N)NC(=O)[C@H](CC(C)C)NC(=O)[C@H](Cc1ccccc1)NC(=O)[C@H](Cc1c[nH]cn1)NC(=O)[C@H](C)NC(=O)[C@H](CC(C)C)NC(=O)[C@H](CCCNC(=N)N)NC(=O)[C@H](CCC(N)=O)NC(=O)[C@@H](NC(=O)[C@H](C)NC(=O)[C@@H]1CSSC[C@H](NC(=O)[C@H](CCCCN)NC(=O)CC[C@H](NC(=O)CCCCCCCCCCCCCCCCCCC(=O)O)C(=O)O)C(=O)N[C@@H](CC(N)=O)C(=O)N[C@@H]([C@@H](C)O)C(=O)N[C@@H](C)C(=O)N[C@@H]([C@@H](C)O)C(=O)N1)[C@@H](C)O)C(=O)N1CCC[C@H]1C(=O)N[C@@H](CO)C(=O)N[C@@H](CO)C(=O)N[C@H](C(=O)N[C@@H](CC(N)=O)C(=O)N[C@H](C(=O)NCC(=O)N[C@@H](CO)C(=O)N[C@@H](CCC(=O)O)C(=O)N[C@H](C(=O)N[C@@H](Cc1ccc(O)cc1)C(N)=O)[C@@H](C)O)C(C)C)[C@@H](C)O
notes: also called compound 30
hAmylin-R funct. EC50 [1]: 0.134 nM | Ratio hCT/hAmylin funct. [2]: 12.6 | hCTR funct. EC50 [2]: 1.68 nM

B6: N^α1-[(4S)-4-carboxy-4-[[(4S)-4-carboxy-4-(19-carboxynonadecanoylamino)butanoyl]amino]butanoyl]-[Glu14,Arg17,Pro21,Pro27,Pro37]-h-amylin (peptide)
peptide: {C20 diacid-γGlu-γGlu}-KCNTATCATQRLAEFLRHSSPNFGAIPSSTNVGSNTP-NH2
modifications: disulfide 2-7
SMILES: CC[C@H](C)[C@H](NC(=O)[C@H](C)NC(=O)CNC(=O)[C@H](Cc1ccccc1)NC(=O)[C@H](CC(N)=O)NC(=O)[C@@H]1CCCN1C(=O)[C@H](CO)NC(=O)[C@H](CO)NC(=O)[C@H](Cc1c[nH]cn1)NC(=O)[C@H](CCCNC(=N)N)NC(=O)[C@H](CC(C)C)NC(=O)[C@H](Cc1ccccc1)NC(=O)[C@H](CCC(=O)O)NC(=O)[C@H](C)NC(=O)[C@H](CC(C)C)NC(=O)[C@H](CCCNC(=N)N)NC(=O)[C@H](CCC(N)=O)NC(=O)[C@@H](NC(=O)[C@H](C)NC(=O)[C@@H]1CSSC[C@H](NC(=O)[C@H](CCCCN)NC(=O)CC[C@H](NC(=O)CC[C@H](NC(=O)CCCCCCCCCCCCCCCCCCC(=O)O)C(=O)O)C(=O)O)C(=O)N[C@@H](CC(N)=O)C(=O)N[C@@H]([C@@H](C)O)C(=O)N[C@@H](C)C(=O)N[C@@H]([C@@H](C)O)C(=O)N1)[C@@H](C)O)C(=O)N1CCC[C@H]1C(=O)N[C@@H](CO)C(=O)N[C@@H](CO)C(=O)N[C@H](C(=O)N[C@@H](CC(N)=O)C(=O)N[C@H](C(=O)NCC(=O)N[C@@H](CO)C(=O)N[C@@H](CC(N)=O)C(=O)N[C@H](C(=O)N1CCC[C@H]1C(N)=O)[C@@H](C)O)C(C)C)[C@@H](C)O
notes: also called compound 14
hAmylin-R funct. EC50 [1]: 0.146 nM | Ratio hCT/hAmylin funct. [2]: 1.6 | hCTR funct. EC50 [2]: 0.238 nM

Continued, values first:

hAmylin-R funct. EC50 [1]: 0.217 nM | Ratio hCT/hAmylin funct. [2]: 46.2 | hCTR funct. EC50 [2]: 10 nM
B3: N^ε1-[2-[2-[2-[[2-[2-[2-[[(4S)-4-carboxy-4-(19-carboxynonadecanoylamino)butanoyl]amino]ethoxy]ethoxy]acetyl]amino]ethoxy]ethoxy]acetyl]-[Arg17,Pro21,Pro27,Glu35 … (peptide)
peptide: K([AEEA-AEEA-γGlu-C20 diacid])CNTATCATQRLANFLRHSSPNFGAIPSSTNVGSETY-NH2
modifications: disulfide 2-7; N-terminus assumed
SMILES: CC[C@H](C)[C@H](NC(=O)[C@H](C)NC(=O)CNC(=O)[C@H](Cc1ccccc1)NC(=O)[C@H](CC(N)=O)NC(=O)[C@@H]1CCCN1C(=O)[C@H](CO)NC(=O)[C@H](CO)NC(=O)[C@H](Cc1c[nH]cn1)NC(=O)[C@H](CCCNC(=N)N)NC(=O)[C@H](CC(C)C)NC(=O)[C@H](Cc1ccccc1)NC(=O)[C@H](CC(N)=O)NC(=O)[C@H](C)NC(=O)[C@H](CC(C)C)NC(=O)[C@H](CCCNC(=N)N)NC(=O)[C@H](CCC(N)=O)NC(=O)[C@@H](NC(=O)[C@H](C)NC(=O)[C@@H]1CSSC[C@H](NC(=O)[C@@H](N)CCCCNC(=O)COCCOCCNC(=O)COCCOCCNC(=O)CC[C@H](NC(=O)CCCCCCCCCCCCCCCCCCC(=O)O)C(=O)O)C(=O)N[C@@H](CC(N)=O)C(=O)N[C@@H]([C@@H](C)O)C(=O)N[C@@H](C)C(=O)N[C@@H]([C@@H](C)O)C(=O)N1)[C@@H](C)O)C(=O)N1CCC[C@H]1C(=O)N[C@@H](CO)C(=O)N[C@@H](CO)C(=O)N[C@H](C(=O)N[C@@H](CC(N)=O)C(=O)N[C@H](C(=O)NCC(=O)N[C@@H](CO)C(=O)N[C@@H](CCC(=O)O)C(=O)N[C@H](C(=O)N[C@@H](Cc1ccc(O)cc1)C(N)=O)[C@@H](C)O)C(C)C)[C@@H](C)O
notes: also called compound 25

hAmylin-R funct. EC50 [1]: 0.212 nM | Ratio hCT/hAmylin funct. [2]: 29.9 | hCTR funct. EC50 [2]: 6.34 nM
B4: N^ε1-[2-[2-[2-[[(4S)-4-carboxy-4-(19-carboxynonadecanoylamino)butanoyl]amino]ethoxy]ethoxy]acetyl]-[Arg17,Pro21,Pro27,Glu35]-h-amylin (peptide)
peptide: K([AEEA-γGlu-C20 diacid])CNTATCATQRLANFLRHSSPNFGAIPSSTNVGSETY-NH2
modifications: disulfide 2-7; N-terminus assumed
SMILES: CC[C@H](C)[C@H](NC(=O)[C@H](C)NC(=O)CNC(=O)[C@H](Cc1ccccc1)NC(=O)[C@H](CC(N)=O)NC(=O)[C@@H]1CCCN1C(=O)[C@H](CO)NC(=O)[C@H](CO)NC(=O)[C@H](Cc1c[nH]cn1)NC(=O)[C@H](CCCNC(=N)N)NC(=O)[C@H](CC(C)C)NC(=O)[C@H](Cc1ccccc1)NC(=O)[C@H](CC(N)=O)NC(=O)[C@H](C)NC(=O)[C@H](CC(C)C)NC(=O)[C@H](CCCNC(=N)N)NC(=O)[C@H](CCC(N)=O)NC(=O)[C@@H](NC(=O)[C@H](C)NC(=O)[C@@H]1CSSC[C@H](NC(=O)[C@@H](N)CCCCNC(=O)COCCOCCNC(=O)CC[C@H](NC(=O)CCCCCCCCCCCCCCCCCCC(=O)O)C(=O)O)C(=O)N[C@@H](CC(N)=O)C(=O)N[C@@H]([C@@H](C)O)C(=O)N[C@@H](C)C(=O)N[C@@H]([C@@H](C)O)C(=O)N1)[C@@H](C)O)C(=O)N1CCC[C@H]1C(=O)N[C@@H](CO)C(=O)N[C@@H](CO)C(=O)N[C@H](C(=O)N[C@@H](CC(N)=O)C(=O)N[C@H](C(=O)NCC(=O)N[C@@H](CO)C(=O)N[C@@H](CCC(=O)O)C(=O)N[C@H](C(=O)N[C@@H](Cc1ccc(O)cc1)C(N)=O)[C@@H](C)O)C(C)C)[C@@H](C)O
notes: also called compound 26

hAmylin-R funct. EC50 [1]: 0.27 nM | Ratio hCT/hAmylin funct. [2]: 3.8 | hCTR funct. EC50 [2]: 1.03 nM
B5: N^α1N^α1-[(4S)-4-carboxy-4-(19-carboxynonadecanoylamino)butanoyl]-[Glu14,Arg17,Pro21,Pro27,Glu35]-h-amylin (peptide)
peptide: {C20 diacid-γGlu}-KCNTATCATQRLAEFLRHSSPNFGAIPSSTNVGSETY-NH2
modifications: disulfide 2-7
SMILES: CC[C@H](C)[C@H](NC(=O)[C@H](C)NC(=O)CNC(=O)[C@H](Cc1ccccc1)NC(=O)[C@H](CC(N)=O)NC(=O)[C@@H]1CCCN1C(=O)[C@H](CO)NC(=O)[C@H](CO)NC(=O)[C@H](Cc1c[nH]cn1)NC(=O)[C@H](CCCNC(=N)N)NC(=O)[C@H](CC(C)C)NC(=O)[C@H](Cc1ccccc1)NC(=O)[C@H](CCC(=O)O)NC(=O)[C@H](C)NC(=O)[C@H](CC(C)C)NC(=O)[C@H](CCCNC(=N)N)NC(=O)[C@H](CCC(N)=O)NC(=O)[C@@H](NC(=O)[C@H](C)NC(=O)[C@@H]1CSSC[C@H](NC(=O)[C@H](CCCCN)NC(=O)CC[C@H](NC(=O)CCCCCCCCCCCCCCCCCCC(=O)O)C(=O)O)C(=O)N[C@@H](CC(N)=O)C(=O)N[C@@H]([C@@H](C)O)C(=O)N[C@@H](C)C(=O)N[C@@H]([C@@H](C)O)C(=O)N1)[C@@H](C)O)C(=O)N1CCC[C@H]1C(=O)N[C@@H](CO)C(=O)N[C@@H](CO)C(=O)N[C@H](C(=O)N[C@@H](CC(N)=O)C(=O)N[C@H](C(=O)NCC(=O)N[C@@H](CO)C(=O)N[C@@H](CCC(=O)O)C(=O)N[C@H](C(=O)N[C@@H](Cc1ccc(O)cc1)C(N)=O)[C@@H](C)O)C(C)C)[C@@H](C)O
notes: also called compound 22

— patent US20140087995A1 (published 2014)
